These results are taken from patent publication US5663141A, “Hirudin/polyalkylene glycol conjugates and hirudin muteins” (BASF Aktiengesellschaft, priority 1989, dated 1997).

The target in data set [1] is thrombin (Homo sapiens, UniProt P00734). Put plainly: thrombin inhibition assay with the chromogenic substrate S 2238 (specific activity). Format: biochemical. An excerpt:
The specific activity of the PEG1 -hirudin conjugate purified from the coupling mixture was 8,000 U/mg of protein (determined by the thrombin inhibition assay with the chromogenic substrate S 2238 (Kabi), (FEBS-Lett. (1983), 164, 307), protein determined by BCA assay with serum albumin as standard (Pierce)), and the molecular weight of the conjugate was 15,000 Da (Superose®-12 chromatography, Pharmacia).

Data set [2] is described as follows: Pharmacokinetics of PEG2-hirudin conjugates in dogs (plasma anti-factor IIa activity). Particulars: beagle dogs, 4,000 U/kg intravenous or subcutaneous, compared with underivatized hirudin, FIGS. 3 and 4. Format: in vivo. How it is done: 2 groups of dogs (beagle dogs, 4 animals in each group) each received intravenous or subcutaneous administration of 4,000 U/kg PEG2 -hirudin (0.2 ml vol). 2 ml samples of blood in 0.1M Na citrate were taken 0.25, 0.5, 1, 2, 3, 4, 6, 8, 24, 32, 48, 56, 72 and 80 h after the injection. Subsequently platelet-poor plasma was prepared by centrifugation at 4,000 g for 10 minutes, and the plasma PEG-hirudin concentration was determined by the thrombin inhibition in the chromogenic substrate assay with S 2238 (Kabi). For comparison, the same dogs were treated in another experiment with hirudin. The time course of the plasma hirudin concentration was subsequently determined as described above.
FIGS. 3 and 4 depict the time course of the anti-factor IIa activities after intravenous and subcutaneous administration of PEG2 -hirudin and underivatized hirudin.

The target of data set [3] is thrombin.
The conditions of data set [4]: in vivo; cited from earlier work.
Where [5] appears, read: purified conjugate, protein determined by BCA assay with serum albumin as standard.
[6] abbreviates: underivatized protein used as starting material.

Turning to “PEG1-hirudin: desulfatohirudin carrying one methoxy-polyethylene glycol(8000) residue, Example 9”, the specific activity with thrombin [1] (setting [5]) is listed as 8,000 U/mg of protein.

“PEG2-hirudin: desulfatohirudin carrying two methoxypolyethylene glycol (8,000 Da) residues, Example 10”: the specific activity in the data set with thrombin [1] (setting [5]) was 6,200 U/mg of protein. In data set [2], the bioavailability entry is “better” and the “duration of the biological action (anti-factor IIa activity time course)” value is on record as “distinctly prolonged”.

For the molecule desulfatohirudin (from UniProt P01050), in the data set with thrombin [3], the specific activity was determined as 8000 ATU/mg.

For “desulfatohirudin: hirudin prepared by genetic engineering, sulfate residue on Tyr 63 absent; sequences 1A + 2A + 3A [reference compound]”, in the data set with thrombin [1] (setting [6]), the specific activity is given as 8,000 ATU/mg.

With “hirudin: naturally occurring anticoagulant protein of 65 amino acids from the leech Hirudo medicinalis, thrombin inhibitor”, in data set [4], the “half-life in the blood” value was “about 50 min”.

B1: HL 14B: hirudin mutein, Asp33→Lys33, Lys36→Arg36, Lys47→Arg47 (protein)
chain: VVYTDCTESGQNLCLCEGSNVCGQGNKCILGSKGERNQCVTGEGTPRPQSHNDGDFEEIPEEYLQ
As for B1, the specific activity with thrombin [1] (setting [6]) was 8,900 ATU/mg.

B2: PEG2-HL 14B: hirudin mutein HL 14B carrying two methoxy-polyethylene glycol (8,000 Da) residues, Example 11 (conjugate)
chain: VVYTDCTESGQNLCLCEGSNVCGQGNKCILGSKGERNQCVTGEGTPRPQSHNDGDFEEIPEEYLQ
modifications: ends and bridges not checked; also: two methoxy-PEG (8,000 Da) on lysine side-chain amino groups, positions not given here
With B2, the specific activity in the data set with thrombin [1] (setting [5]) is 8,300 U/mg of protein.
